Among the data in patent publication US20260201347A1, “ARTIFICIAL BIFUNCTIONAL ENZYME COMPRISING A MYELOPEROXIDASE ACTIVITY AND A GLUCOSE OXIDASE ACTIVITY AND APPLICATIONS THEREOF” (UNIVERSITÉ DE BORDEAUX, priority 2022, published 2026) are Km, kcat and kcat/Km values, retold here.

Substitutions are numbered along the chain they refer to. “And” between values parts separate entries of the source, which are not always exact repeats. Equal values may be shown once.

What all share (type): biochemical, Rhodopirellula baltica / Penicillium amagasakiens
Substrate in data set [1]: OC[C@H]1OC(O)[C@H](O)[C@@H](O)[C@@H]1O
The data set is described as follows: Coupled active sites, HOCl production from glucose, APF assay (Table 9), linker LEKREAEA
As to conditions: other: trimer; fixed NaCl 20 mM, pH7.5; pH 7.5. Here is the method: (§1) Each experiment was performed in triplicate.
(§2) The activity of the two active sites was then assessed in conjunction to each other (FIG. 1).
(§3) Briefly, the aim was to measure the production of HOCl from glucose and NaCl as respective substrates of the enzymes, using the APF probe. Two types of kinetics were performed: • i) kinetics at various concentrations of glucose and a fixed concentration of NaCl, and • ii) kinetics at various concentration of NaCl and a fixed concentration of glucose.

Substrate in data set [2]: OC[C@H]1OC(O)[C@H](O)[C@@H](O)[C@@H]1O
The data set is described as follows: Coupled active sites, HOCl production from glucose, APF assay (Table 9), linker LGKRGAGA
Particulars: fixed NaCl 20 mM, pH7.5, pH 7.5. Here is the method:
as §1, §2, §3

Substrate in data set [3]: OC[C@H]1OC(O)[C@H](O)[C@@H](O)[C@@H]1O
The data set is described as follows: Coupled active sites, HOCl production from glucose, APF assay (Table 9), linker LEKREAEALEKREAEA
As to conditions: fixed NaCl 20 mM, pH7.5, pH 7.5. Here is the method: as §1, §2, §3

Substrate in data set [4]: OC[C@H]1OC(O)[C@H](O)[C@@H](O)[C@@H]1O
The data set is described as follows: Coupled active sites, HOCl production from glucose, all other chimeras. Particulars: glucose as substrate, pH 7.5. How it is done:
as §1, §2, §3

B1: RbMPO-LEKREAEA-GOx chimera (Rhodopirellula baltica myeloperoxidase, SEQ ID NO: 10; linker SEQ ID NO: 7; Penicillium amagasakiens glucose oxidase, SEQ ID NO: … (protein)
chain: MLFWSKRTRKHPGRKRRRLRSEQLESRQLLAADFGGYRHNIYDAEDVNDDGRVSAIDALLVINAMTSETSRDENVFTDVNGDGRRSALDALRVINRIERGDVFPIDTSGDEDLNTLLPEMPSEVRSIDGSGNNPNDHLWGSVGQRLIRMAPAAYGDGISTLAGANRPSAREVSNVLSAMNTSQVLNDRGLSAFVYVWGQFIDHDLGLTESDEHGEAIDISVPEGDLWFDPMGSGEAVIPMTRTPIADGTGTSVGNPAQQFNQITAFIDGSMVYGSDAATAERLRTFAGGRLAISDNGLLPMDESGMVIAGDVRASENVGLTAIQTLFVREHNRLADEIFAADPEATDEEIYQRARLVVASLIQSITYNEFLPALLGQRAMDSYRGYDASVNPGIANEFSTAAFRLGHSTLRDEVGFMSNDGRESKDEMELKDAFFHASMLEETGIDSLLKFDASVQAQEIDLAVVDSLRNFLFGPPGAGGLDLVAMNIQRGRDHGLSDYNTTRQAYGLDRVETFDQITGDVELQQKLASLYGTVDNIDLWVGLMAEDHQHDASVGELTGLIIADQFQRTRDGDRFFYKNVLTDSEVESIERSTLADLIERNTSVDGLQENVFFMQVELRGRVILASSIPPNTMPSEVREEEIRGVSGMAIELIDASGKLVDSTVSDQHGNYRFRALSETGDYQVRLSESGEAMDVLVAHGAERIRGLDFIVLALEKREAEAYLPAQQIDVQSSLLSDPSKVAGKTYDYIIAGGGLTGLTVAAKLTENPKIKVLVIEKGFYESNDGAIIEDPNAYGQIFGTTVDQNYLTVPLINNRTNNIKAGKGLGGSTLINGDSWTRPDKVQIDSWEKVFGMEGWNWDNMFEYMKKAEAARTPTAAQLAAGHSFNATCHGTNGTVQSGARDNGQPWSPIMKALMNTVSALGVPVQQDFLCGHPRGVSMIMNNLDENQVRVDAARAWLLPNYQRSNLEILTGQMVGKVLFKQTASGPQAVGVNFGTNKAVNFDVFAKHEVLLAAGSAISPLILEYSGIGLKSVLDQANVTQLLDLPVGINMQDQTTTTVSSRASSAGAGQGQAVFFANFTETFGDYAPQARDLLNTKLDQWAEETVARGGFHNVTALKVQYENYRNWLLDEDVAFAELFMDTEGKINFDLWDLIPFTRGSVHILSSDPYLWQFANDPKFFLNEFDLLGQAAASKLARDLTSQGAMKEYFAGETLPGYNLVQNATLSQWSDYVLQNFRPNWHAVSSCSMMSRELGGVVDATAKVYGTQGLRVIDGSIPPTQVSSHVMTIFYGMALKVADAILDDYAKSA
notes: 6His (in the pET21a vector behind the XhoI site); made in house; host or cells: E. coli BL21Star (DE3)
By Km is commonly meant the substrate concentration at which the rate is half of its maximum. What is called kcat is the number of substrate molecules converted per active site and unit of time at saturation. As usually defined, the kcat/Km is the second-order rate constant that governs catalysis at low substrate concentration. Take B1: in data set [1], the Km amounted to 10620 ± 8250 µM, the kcat came out at 0.000109 s⁻¹ and the catalytic efficiency (kcat/Km) came to 0.01 ± 0.011 M⁻¹ s⁻¹.

B2: RbMPO-LGKRGAGA-GOx chimera (Rhodopirellula baltica myeloperoxidase, SEQ ID NO: 10; linker SEQ ID NO: 5; Penicillium amagasakiens glucose oxidase, SEQ ID NO: … (protein)
chain: B1 chain with E715G, E718G, E720G
notes: as for B1
Take B2: in data set [2] (other: dimer/monomer), the Michaelis-Menten constant (Km) is 66900 ± 24100 µM, the kcat came to 0.00305 s⁻¹ and the catalytic efficiency (kcat/Km) is 0.046 ± 0.025 M⁻¹ s⁻¹. Besides, in data set [2] (other: excluded), the Km stood at 2270 ± 1300 µM, the turnover number (kcat) was 0.00133 s⁻¹ and the catalytic efficiency (kcat/Km) worked out at 0.586 ± 0.384 M⁻¹ s⁻¹. Besides, in data set [2] (other: trimer), the Michaelis constant (Km) was determined as 2022 ± 644 µM, the turnover number (kcat) is 0.0022 s⁻¹ and the specificity constant (kcat/Km) was found to be 1.09 ± 0.801 M⁻¹ s⁻¹.

B3: RbMPO-LEKREAEALEKREAEA-GOx chimera (Rhodopirellula baltica myeloperoxidase, SEQ ID NO: 10; linker SEQ ID NO: 6; Penicillium amagasakiens glucose oxidase, SEQ … (protein)
chain: MLFWSKRTRKHPGRKRRRLRSEQLESRQLLAADFGGYRHNIYDAEDVNDDGRVSAIDALLVINAMTSETSRDENVFTDVNGDGRRSALDALRVINRIERGDVFPIDTSGDEDLNTLLPEMPSEVRSIDGSGNNPNDHLWGSVGQRLIRMAPAAYGDGISTLAGANRPSAREVSNVLSAMNTSQVLNDRGLSAFVYVWGQFIDHDLGLTESDEHGEAIDISVPEGDLWFDPMGSGEAVIPMTRTPIADGTGTSVGNPAQQFNQITAFIDGSMVYGSDAATAERLRTFAGGRLAISDNGLLPMDESGMVIAGDVRASENVGLTAIQTLFVREHNRLADEIFAADPEATDEEIYQRARLVVASLIQSITYNEFLPALLGQRAMDSYRGYDASVNPGIANEFSTAAFRLGHSTLRDEVGFMSNDGRESKDEMELKDAFFHASMLEETGIDSLLKFDASVQAQEIDLAVVDSLRNFLFGPPGAGGLDLVAMNIQRGRDHGLSDYNTTRQAYGLDRVETFDQITGDVELQQKLASLYGTVDNIDLWVGLMAEDHQHDASVGELTGLIIADQFQRTRDGDRFFYKNVLTDSEVESIERSTLADLIERNTSVDGLQENVFFMQVELRGRVILASSIPPNTMPSEVREEEIRGVSGMAIELIDASGKLVDSTVSDQHGNYRFRALSETGDYQVRLSESGEAMDVLVAHGAERIRGLDFIVLALEKREAEALEKREAEAYLPAQQIDVQSSLLSDPSKVAGKTYDYIIAGGGLTGLTVAAKLTENPKIKVLVIEKGFYESNDGAIIEDPNAYGQIFGTTVDQNYLTVPLINNRTNNIKAGKGLGGSTLINGDSWTRPDKVQIDSWEKVFGMEGWNWDNMFEYMKKAEAARTPTAAQLAAGHSFNATCHGTNGTVQSGARDNGQPWSPIMKALMNTVSALGVPVQQDFLCGHPRGVSMIMNNLDENQVRVDAARAWLLPNYQRSNLEILTGQMVGKVLFKQTASGPQAVGVNFGTNKAVNFDVFAKHEVLLAAGSAISPLILEYSGIGLKSVLDQANVTQLLDLPVGINMQDQTTTTVSSRASSAGAGQGQAVFFANFTETFGDYAPQARDLLNTKLDQWAEETVARGGFHNVTALKVQYENYRNWLLDEDVAFAELFMDTEGKINFDLWDLIPFTRGSVHILSSDPYLWQFANDPKFFLNEFDLLGQAAASKLARDLTSQGAMKEYFAGETLPGYNLVQNATLSQWSDYVLQNFRPNWHAVSSCSMMSRELGGVVDATAKVYGTQGLRVIDGSIPPTQVSSHVMTIFYGMALKVADAILDDYAKSA
notes: as for B1
Turning to B3, the Michaelis constant (Km) in data set [3] (other: dimer/monomer) is 2020 ± 1070 µM. In data set [3] (other: excluded), the Michaelis-Menten constant (Km) stood at 14170 ± 4620 µM, the catalytic constant (kcat) was 0.00015 s⁻¹ and the kcat/Km is 0.01 ± 0.004 M⁻¹ s⁻¹. Also, in data set [3] (other: trimer), the Michaelis constant (Km) was 770 ± 500 µM; the kcat is 0.00137 s⁻¹; the kcat/Km is 1.7 ± 1.34 M⁻¹ s⁻¹ and 1.77 M⁻¹ s⁻¹.

B4: RbMPO-GOx chimeras, all other chimeras (Penicillium amagasakiense) (protein)
chain: YLPAQQIDVQSSLLSDPSKVAGKTYDYIIAGGGLTGLTVAAKLTENPKIKVLVIEKGFYESNDGAIIEDPNAYGQIFGTTVDQNYLTVPLINNRTNNIKAGKGLGGSTLINGDSWTRPDKVQIDSWEKVFGMEGWNWDNMFEYMKKAEAARTPTAAQLAAGHSFNATCHGTNGTVQSGARDNGQPWSPIMKALMNTVSALGVPVQQDFLCGHPRGVSMIMNNLDENQVRVDAARAWLLPNYQRSNLEILTGQMVGKVLFKQTASGPQAVGVNFGTNKAVNFDVFAKHEVLLAAGSAISPLILEYSGIGLKSVLDQANVTQLLDLPVGINMQDQTTTTVSSRASSAGAGQGQAVFFANFTETFGDYAPQARDLLNTKLDQWAEETVARGGFHNVTALKVQYENYRNWLLDEDVAFAELFMDTEGKINFDLWDLIPFTRGSVHILSSDPYLWQFANDPKFFLNEFDLLGQAAASKLARDLTSQGAMKEYFAGETLPGYNLVQNATLSQWSDYVLQNFRPNWHAVSSCSMMSRELGGVVDATAKVYGTQGLRVIDGSIPPTQVSSHVMTIFYGMALKVADAILDDYAKSA
notes: pET21a, E. coli; heme and FAD reconstituted; GOx mature part (P81156 19-605)
B4: the catalytic efficiency (kcat/Km) in data set [4] stood at 1 M⁻¹ s⁻¹.
